We go through 1 substance from publication PMC9590138.

The experiment addresses recombinant soluble CD146 (UniProt P43121). The experiment in a line: ELISA; in-house ELISA: binding of αvβ3 to rsCD146, dissociation constant estimated; methods in Additional file 1, not shown.

In general, Kd refers to a measure of binding affinity in units of concentration. Consider “integrin αvβ3 (protein used in the in-house ELISA) (from UniProt P06756 31-1048; P05106 27-788) (receptor)”, for which the dissociation constant (Kd) was 1.8 nM.
